B1: Microtubule protein alp7 (Schizosaccharomyces pombe (strain ATCC 38366 / 972)), Q9URY2 (parent)
chain: MSDIVSSSTDYSRRSPSSSSIGTNETDHTGFHEKRQGASSESLIPPAQRSSEESMPAPKLFPKLTSKPNPQLNLKDTLNKRVSDRLQALELNKSFDFSGTPRPMHPISHPLSQHKTPEFKHRKRNVESILTPKNPSLFSSSNAASQRGSLNTAPSNFAYSHSSSLQTSASSRPPVLSNGSFPRQTNTAPLNPPVHLKDNIRNSATPSTSQADIPTQYPINSTQKQQAKYEAEIEGYKAKLAGTYHEISVLQNTIVNVSGQLIAVNDQLQQLRSGKASTSPSTKDTNMRLVEGHNEETLALQRGKYTQEEVDKLIQERMEKVAEDLHAQYSAKHTQKINAFKANYARKYEATIQELQNQIGTAPNAPKISNSNWEEERRALKADNQTLQKQLEKAIQERQDMSDFLNNFKADMAKSDKLLMQQQSQQTGDLETLRLQLQALQEELRVEREERQQLIQMSEDLVIAMDQLNLEQKS
partner: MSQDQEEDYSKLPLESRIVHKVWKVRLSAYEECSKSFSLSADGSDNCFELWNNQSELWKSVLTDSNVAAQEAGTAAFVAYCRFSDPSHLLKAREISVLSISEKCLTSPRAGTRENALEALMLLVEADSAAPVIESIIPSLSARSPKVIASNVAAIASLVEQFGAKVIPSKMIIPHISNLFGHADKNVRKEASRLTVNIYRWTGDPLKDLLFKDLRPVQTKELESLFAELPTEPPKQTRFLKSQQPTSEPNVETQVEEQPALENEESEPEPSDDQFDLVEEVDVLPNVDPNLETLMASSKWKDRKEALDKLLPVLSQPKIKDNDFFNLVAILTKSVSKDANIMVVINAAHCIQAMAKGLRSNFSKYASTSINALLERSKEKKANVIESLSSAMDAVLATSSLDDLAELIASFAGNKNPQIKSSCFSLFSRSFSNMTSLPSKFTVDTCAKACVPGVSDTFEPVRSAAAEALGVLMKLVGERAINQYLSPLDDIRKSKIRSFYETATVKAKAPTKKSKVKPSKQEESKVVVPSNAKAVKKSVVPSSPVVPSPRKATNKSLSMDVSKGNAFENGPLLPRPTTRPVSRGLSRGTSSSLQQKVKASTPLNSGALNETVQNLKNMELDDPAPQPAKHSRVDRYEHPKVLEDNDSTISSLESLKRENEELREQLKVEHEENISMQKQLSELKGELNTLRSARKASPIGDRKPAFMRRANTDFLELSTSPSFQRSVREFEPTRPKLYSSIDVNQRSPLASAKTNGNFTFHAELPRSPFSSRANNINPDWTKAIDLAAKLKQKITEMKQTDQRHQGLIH
B2: Microtubule protein alp7 (Schizosaccharomyces pombe (strain ATCC 38366 / 972)), Q9URY2 (parent)
chain: B1 chain
partner: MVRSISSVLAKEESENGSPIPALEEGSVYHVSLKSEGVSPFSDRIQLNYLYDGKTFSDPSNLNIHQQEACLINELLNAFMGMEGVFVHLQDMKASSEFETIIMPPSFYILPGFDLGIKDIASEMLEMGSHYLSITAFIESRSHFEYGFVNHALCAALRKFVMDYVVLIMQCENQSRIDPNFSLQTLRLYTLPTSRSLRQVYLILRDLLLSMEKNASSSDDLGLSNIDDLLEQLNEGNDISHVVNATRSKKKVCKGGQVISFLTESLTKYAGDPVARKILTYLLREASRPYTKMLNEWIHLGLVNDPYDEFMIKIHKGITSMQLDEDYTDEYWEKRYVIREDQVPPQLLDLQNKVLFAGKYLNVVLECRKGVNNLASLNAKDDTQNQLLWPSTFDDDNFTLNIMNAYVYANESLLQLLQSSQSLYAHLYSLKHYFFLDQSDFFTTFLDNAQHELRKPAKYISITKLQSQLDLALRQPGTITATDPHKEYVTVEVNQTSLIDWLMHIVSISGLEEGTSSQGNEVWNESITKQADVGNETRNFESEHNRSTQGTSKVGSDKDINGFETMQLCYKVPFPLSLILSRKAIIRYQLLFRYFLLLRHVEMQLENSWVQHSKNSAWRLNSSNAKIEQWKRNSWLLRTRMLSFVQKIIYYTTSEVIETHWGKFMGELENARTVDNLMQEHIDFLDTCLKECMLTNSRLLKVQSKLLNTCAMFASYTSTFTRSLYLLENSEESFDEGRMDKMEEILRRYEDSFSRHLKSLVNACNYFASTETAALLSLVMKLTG
B3: Microtubule protein alp7 (Schizosaccharomyces pombe (strain ATCC 38366 / 972)), Q9URY2 (parent)
chain: B1 chain
partner: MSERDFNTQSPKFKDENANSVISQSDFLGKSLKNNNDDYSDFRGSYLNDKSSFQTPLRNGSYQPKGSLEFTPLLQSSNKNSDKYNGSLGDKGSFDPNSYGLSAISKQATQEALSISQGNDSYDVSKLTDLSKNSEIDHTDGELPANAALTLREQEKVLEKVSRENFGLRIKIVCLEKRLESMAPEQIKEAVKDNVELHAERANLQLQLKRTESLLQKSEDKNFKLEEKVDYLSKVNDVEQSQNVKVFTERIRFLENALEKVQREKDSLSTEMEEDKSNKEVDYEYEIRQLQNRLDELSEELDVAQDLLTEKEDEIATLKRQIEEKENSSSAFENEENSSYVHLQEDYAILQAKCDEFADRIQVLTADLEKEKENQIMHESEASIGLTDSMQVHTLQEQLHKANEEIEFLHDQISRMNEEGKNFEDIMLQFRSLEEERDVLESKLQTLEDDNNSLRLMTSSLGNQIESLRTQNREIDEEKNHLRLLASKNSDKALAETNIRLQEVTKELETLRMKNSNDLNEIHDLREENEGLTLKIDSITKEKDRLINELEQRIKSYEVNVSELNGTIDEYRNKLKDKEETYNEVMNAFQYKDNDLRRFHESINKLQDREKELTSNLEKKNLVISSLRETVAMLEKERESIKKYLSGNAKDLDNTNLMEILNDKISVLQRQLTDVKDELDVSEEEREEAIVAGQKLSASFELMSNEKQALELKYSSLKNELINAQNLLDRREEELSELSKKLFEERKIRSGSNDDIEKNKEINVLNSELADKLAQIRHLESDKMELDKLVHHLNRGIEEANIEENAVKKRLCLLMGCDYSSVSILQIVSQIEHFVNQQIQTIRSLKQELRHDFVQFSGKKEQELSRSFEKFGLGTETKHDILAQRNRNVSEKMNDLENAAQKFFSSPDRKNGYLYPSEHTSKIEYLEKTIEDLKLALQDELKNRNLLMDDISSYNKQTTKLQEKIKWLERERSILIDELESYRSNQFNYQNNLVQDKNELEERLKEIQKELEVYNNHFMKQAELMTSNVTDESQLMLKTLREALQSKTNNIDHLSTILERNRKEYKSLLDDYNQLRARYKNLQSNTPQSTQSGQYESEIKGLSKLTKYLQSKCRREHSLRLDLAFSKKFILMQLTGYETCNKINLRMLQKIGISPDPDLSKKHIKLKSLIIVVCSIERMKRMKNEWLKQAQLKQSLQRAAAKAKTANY

Variants of: B1
Settings: with alp14_schpo alp14, O94534

| effect of a mutation on the interaction | Variant |
| --- | --- |
| disrupting interaction | K341A;Y344A;R346A;K347A;Y348A |

Variants of: B2
Settings: with spc97_schpo alp4, Q9Y705

| effect of a mutation on the interaction | Variant |
| --- | --- |
| disrupting interaction | K341A;Y344A;R346A;K347A;Y348A |

Variants of: B3
Settings: with pcp1_schpo pcp1, Q92351

| effect of a mutation on the interaction | Variant |
| --- | --- |
| disrupting interaction | K341A;Y344A;R346A;K347A;Y348A |

Source: IntAct's records for PubMed 24937146
